What all share (assay): cell-based or functional assay
In assay [1] the target is human IL-2Rα on Treg cells (CD3+, CD4+, CD25hi, FoxP3+) of human PBMC (human) (UniProt P01589).
The target of assay [2] is trimeric murine IL-2 receptor (IL-2Rα, IL-2Rβ, and IL-2Rγ) on CTLL-2 cells (murine) (UniProt P01590).
Assay [3] shares this target. This is another data set of the same source.

Read-outs that look alike come from different tables or passages of the source.

Chain of trimeric murine IL-2 receptor (IL-2Rα, IL-2Rβ, and IL-2Rγ) on CTLL-2 cells (murine) (P01590 22-268, chain 1 of 3): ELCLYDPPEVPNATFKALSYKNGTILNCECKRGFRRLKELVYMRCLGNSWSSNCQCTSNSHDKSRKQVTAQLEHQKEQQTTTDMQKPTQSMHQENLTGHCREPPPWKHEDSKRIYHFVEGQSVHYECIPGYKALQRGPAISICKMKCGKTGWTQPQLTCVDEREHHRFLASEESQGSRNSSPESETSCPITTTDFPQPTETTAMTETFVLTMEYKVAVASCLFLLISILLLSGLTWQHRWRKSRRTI
Chain of trimeric murine IL-2 receptor (IL-2Rα, IL-2Rβ, and IL-2Rγ) on CTLL-2 cells (murine) (P16297 27-539, chain 2 of 3, further chain): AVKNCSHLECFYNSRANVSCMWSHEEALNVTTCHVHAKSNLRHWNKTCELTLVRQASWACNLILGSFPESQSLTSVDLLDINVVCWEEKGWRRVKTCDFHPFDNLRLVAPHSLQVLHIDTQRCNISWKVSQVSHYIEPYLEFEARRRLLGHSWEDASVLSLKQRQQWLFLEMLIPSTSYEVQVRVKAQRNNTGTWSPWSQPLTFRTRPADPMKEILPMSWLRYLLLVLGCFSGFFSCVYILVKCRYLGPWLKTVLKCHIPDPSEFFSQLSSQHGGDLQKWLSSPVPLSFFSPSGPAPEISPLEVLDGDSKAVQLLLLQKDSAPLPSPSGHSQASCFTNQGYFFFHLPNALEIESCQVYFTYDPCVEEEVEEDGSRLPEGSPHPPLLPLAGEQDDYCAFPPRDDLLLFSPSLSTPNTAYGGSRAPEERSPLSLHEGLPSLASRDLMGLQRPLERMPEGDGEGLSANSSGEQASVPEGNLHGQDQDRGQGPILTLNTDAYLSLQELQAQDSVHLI
Chain of trimeric murine IL-2 receptor (IL-2Rα, IL-2Rβ, and IL-2Rγ) on CTLL-2 cells (murine) (P34902 23-369, chain 3 of 3, further chain): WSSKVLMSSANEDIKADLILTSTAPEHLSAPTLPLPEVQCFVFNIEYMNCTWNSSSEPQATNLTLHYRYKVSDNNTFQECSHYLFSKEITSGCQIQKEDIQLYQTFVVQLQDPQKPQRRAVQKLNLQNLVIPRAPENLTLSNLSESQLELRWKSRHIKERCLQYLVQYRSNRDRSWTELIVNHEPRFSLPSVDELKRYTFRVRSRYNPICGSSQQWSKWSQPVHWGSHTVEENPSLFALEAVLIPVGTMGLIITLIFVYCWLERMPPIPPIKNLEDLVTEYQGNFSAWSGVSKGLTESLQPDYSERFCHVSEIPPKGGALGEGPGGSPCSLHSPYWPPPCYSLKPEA
Chain of human IL-2Rα on Treg cells (CD3+, CD4+, CD25hi, FoxP3+) of human PBMC (human) (P01589 22-272): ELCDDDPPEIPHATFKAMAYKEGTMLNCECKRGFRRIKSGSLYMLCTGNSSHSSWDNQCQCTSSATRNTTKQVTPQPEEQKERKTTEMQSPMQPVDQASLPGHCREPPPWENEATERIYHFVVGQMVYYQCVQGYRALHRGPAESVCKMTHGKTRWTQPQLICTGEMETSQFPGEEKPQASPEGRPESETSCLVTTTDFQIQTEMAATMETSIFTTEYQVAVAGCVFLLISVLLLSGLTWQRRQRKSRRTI

Substance “Proleukin (from UniProt P60568 22-153) (ligand)” registered a Treg EC50, STAT5 activation (PBMC STAT5 assay) in assay [1] of less than 1 pM. Also, the STAT5 activation of CTLL-2 cells, EC50 in assay [2] stood at 6 pM; in assay [3], 2 pM.

The record behind these values is patent US20240269235A1.
